Assay [1] deals with T1, human Siglec-15-Fc (human).
T1 construct: Expressed in 293-F cells, purified on Protein A; also called soluble human Siglec-15-Fc; human Siglec-15-Fc protein
Put plainly: ELISA, human Siglec-15-Fc immobilized at 5 µg/ml, antibody 1.28 to 20,000 ng/ml. The protocol: The property of the rat anti-mouse Siglec-15 monoclonal antibody binding to human Siglec-15 protein was evaluated by an ELISA method. The human Siglec-15-Fc protein (subjected to replacement with A-PBS) produced in b) of Example 12 was diluted to 5 μg/ml with 0.1 M sodium carbonate buffer (pH 9.5), and the resulting solution was added to a 96-well plate (manufactured by Nalge Nunc International, Inc., Cat. No. 430341) at 100 μl/well. After the plate had been left at room temperature for 1 hour, the solution was removed and a washing buffer (phosphate-buffered saline containing 0.05% Tween 20) was added at 300 μl/well and then removed. After this washing procedure had been performed one more time, phosphate-buffered saline containing 25% BlockAce (manufactured by Dainippon Sumitomo Pharma Co., Ltd.) was added at 200 μl/well, and the plate was left at room temperature for 1 hour, whereby blocking was performed. The liquid was removed, and the plate was washed twice with 300 μl/well of the washing buffer. […] After developing the color, an absorbance at 492 nm was measured using a microplate reader (manufactured by Nihon Molecular Devices Corporation).

Assay [2] addresses T2, human Siglec-15 V-set domain (human, UniProt Q6ZMC9 39-165).
T2 construct: The His tag was cleaved with thrombin before use; also called human V-set domain
T2 sequence: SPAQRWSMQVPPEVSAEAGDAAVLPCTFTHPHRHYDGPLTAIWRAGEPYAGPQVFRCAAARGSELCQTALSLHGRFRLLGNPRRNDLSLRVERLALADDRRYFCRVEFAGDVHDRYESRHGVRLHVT
Put plainly: competitive ELISA: V-set domain (0 to 20 µg/ml) pre-mixed with #32A1 (2 µg/ml), then added to captured human Siglec-15-Fc. The protocol: In a 96-well maxi-sorp plate (manufactured by Nunc, Inc., model number: 442404), 100 μl of a goat anti-human Fc antibody (Jackson ImmunoResearch, Inc., model number: 109-005-098) (1.25 μg/ml) was added to each well and immobilized overnight at 4° C. After the 96-well maxi-sorp plate was washed twice with PBS, 100 μl of the soluble human Siglec-15-Fc (1 μg/ml) was added to each well and immobilized at room temperature for 1 hour. Thereafter, 300 μl of a 5% skim milk/PBS solution was added to each well, and blocking of the wells was performed at room temperature for 3 hours. In the meantime, 2 μg/ml of the rat anti-mouse Siglec-15 monoclonal antibody #32A1 was mixed with an equivalent amount of 0, 0.032, 0.16, 0.8, 4, or 20 μg/ml of the human Siglec-15 V-set domain, and a reaction was allowed to proceed at room temperature for 1.5 hours. After the 96-well maxi-sorp plate had been washed twice with PBS, 100 μl of the mixed solution of the rat anti-mouse Siglec-15 monoclonal antibody #32A1 and the human Siglec-15 V-set domain was added thereto, and a reaction was allowed to proceed at room temperature for 1 hour. […] Then, 100 μl of a reaction stopping solution was added thereto, and an absorbance at 405 nm was measured.

Assay [3] concerns the target T1, human Siglec-15-Fc. Put plainly: ELISA, human Siglec-15-Fc immobilized at 1 µg/ml, antibody 1 to 0.004 µg/ml, fluorescence read-out.

Where a chain is given by its changes, count along the chain named. Numbers in names are those of the source.

T1 sequence (chain, as listed by the source limits assumed): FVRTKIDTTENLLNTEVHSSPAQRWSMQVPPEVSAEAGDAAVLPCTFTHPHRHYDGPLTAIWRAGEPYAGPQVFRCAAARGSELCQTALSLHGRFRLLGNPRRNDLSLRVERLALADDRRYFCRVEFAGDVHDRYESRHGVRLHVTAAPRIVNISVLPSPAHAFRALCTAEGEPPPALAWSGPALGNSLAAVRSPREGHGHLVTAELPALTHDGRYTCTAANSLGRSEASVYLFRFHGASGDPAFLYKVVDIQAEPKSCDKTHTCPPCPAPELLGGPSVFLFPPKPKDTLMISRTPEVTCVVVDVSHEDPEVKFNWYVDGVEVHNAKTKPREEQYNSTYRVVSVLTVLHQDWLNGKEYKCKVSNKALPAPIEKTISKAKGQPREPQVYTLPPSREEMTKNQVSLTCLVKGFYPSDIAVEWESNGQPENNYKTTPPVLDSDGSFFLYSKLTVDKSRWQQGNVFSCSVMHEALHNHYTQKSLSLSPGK

B1: rat anti-mouse Siglec-15 monoclonal antibody #32A1 (antibody, rat IgG2a, V domains shown)
VH: EVQILETGGGLVKPGGSLRLSCATSGFNFNDYFMNWVRQAPEKGLEWVAQIRNKIYTYATFYAESLEGRVTISRDDSESSVYLQVSSLRAEDTAIYYCTRSLTGGDYFDYWGQGVMVTVSL
VL: DIVLTQSPALAVSLGQRATISCRASQSVTISGYSFIHWYQQKPGQQPRLLIYRASNLASGIPARFSGSGSGTDFTLTINPVQADDIATYFCQQSRKSPWTFAGGTKLELRRA
notes: Whole rat IgG purified from nude mouse ascites; Cloning primers were designed from the rat IgG2a heavy chain and kappa light chain constant regions; also called #32A1 antibody; rat #32A1 antibody
Regarding B1, the binding result (in the assay with human Siglec-15-Fc [1]; in assay [2]) was “binds” throughout.

B2: h#32A1-T1 (antibody, human IgG1, kappa, V domains shown)
VH: EVQLVESGGGLVQPGGSLRLSCAASGFNFNDYFMNWVRQAPGKGLEWVAQIRNKIYTYATFYAESLEGRFTISRDNAKNSLYLQMNSLRAEDTAVYYCARSLTGGDYFDYWGQGTLVTVSS
VL: DIVMTQSPDSLAVSLGERATINCRASQSVTISGYSFIHWYQQKPGQPPKLLIYRASNLASGVPARFSGSGSGTDFTLTISSLQAEDVAVYYCQQSRKSPWTFGGGTKVEIKR
notes: Human IgG1 / kappa constant regions; also called humanized antibody of rat anti-mouse Siglec-15 #32A1 T1; h#32A1-T1H / h#32A1-T1L
With B2, in the assay with human Siglec-15-Fc [3], the binding result is listed as “binds”.

B3: h#32A1-T6 (antibody, human IgG1, kappa, V domains shown)
VH: B2 VH with L4V, A24T, G42E, F70V, A77S, N79S, S80T, L81V, N86S, A99T
VL: B2 VL with M4L, N22S, K49R, V62I, V89T, Y91F, G103A
notes: Human IgG1 / kappa constant regions; also called humanized antibody of rat anti-mouse Siglec-15 #32A1 T6; h#32A1-T6H / h#32A1-T6L
For B3, the binding result with human Siglec-15-Fc [3] is “binds”.

B4: h#32A1-T3 (antibody, human IgG1, kappa, V domains shown)
VH: B1 VH with L5V, T7S, K13Q, V85M, I95V, V115T, M116L, L121S
VL: B2 VL with M4L, N22S, P47Q, K49R, V62I, V89T, Y91F, G103A
notes: Human IgG1 / kappa constant regions; also called humanized antibody of rat anti-mouse Siglec-15 #32A1 T3; h#32A1-T3H / h#32A1-T3L
In the case of B4, in the assay with human Siglec-15-Fc [3], the binding result was “binds”.

B5: h#32A1-T2 (antibody, human IgG1, kappa, V domains shown)
VH: B2 VH with G42E, F70V, N86S
VL: B2 VL with N22S, K49R, Y91F, G103A
notes: Human IgG1 / kappa constant regions; also called humanized antibody of rat anti-mouse Siglec-15 #32A1 T2; h#32A1-T2H / h#32A1-T2L
In the case of B5, in the assay with human Siglec-15-Fc [3], the binding result is recorded as “binds”.

B6: h#32A1-T5 (antibody, human IgG1, kappa, V domains shown)
VH: B2 VH with L4V, A24T, A77S, N79S, S80T, L81V, A99T
VL: B2 VL with M4L, V62I, V89T, G104Q
notes: Human IgG1 / kappa constant regions; also called humanized antibody of rat anti-mouse Siglec-15 #32A1 T5; h#32A1-T5H / h#32A1-T5L
B6: in the assay with human Siglec-15-Fc [3], the binding result was “binds”.

These data come from patent US20110268733A1 (Daiichi Sankyo, published 2011).
